Assay results from the RNAGym collection of RNA variant scans (doi:10.7554/elife.80360).

B1: HDV Ribozyme (parent)
chain: GGCCGGCAUGGUCCCAGCCUCCUCGCUGGCGCCGGCUGGGCAACAUUCCGAGGGGACCGUCCCCUCGGUAAUGGCGAAUGGGACCCA

Variants of: B1
Test: self-cleavage, relative activity (ratio to wild type); higher = more cleavage; co-transcriptional

In order of rising self-cleavage:
1. AGCCGGCAUGGUGCCAGCCUCCUCGCUGGCGCCGGCUGGGCAACAUUCCGAGGGGACCGUCCCCUCGGUAAUGGCGAAUGGGACCCA [G1A C13G]  0
2. GGCCGGCAUGGUCCCAGCCUCCUGGCUGGCGCCGGCUGGGCAACAUUCCGAGGGGACCGUCCCCUCGGUAAUGGCGACUGGGACCCA [C24G A78C]  0.0241
3. GGCCGGCAUGGUCCCAGCGUCCUCGCUGGCGCCGGCUGGGCAACAUUCCGAGGGGAACGUCCCCUCGGUAAUGGCGAAUGGGACCCA [C19G C57A]  0.0256
4. GGCCGGAAUGGUCCCAGCCUCCUCGCUGGUGCCGGCUGGGCAACAUUCCGAGGGGACCGUCCCCUCGGUAAUGGCGAAUGGGACCCA [C7A C30U]  0.0396
5. GGCCGGCAUGGUCCCAGCCACCUCGCUGGCGCCGGCUGGGCAACAUUCCGAGGGGACCGUCCCCUCAGUAAUGGCGAAUGGGACCCA [U20A G67A]  0.0462
6. GGCCGUCAUGGUCCCAGCCUCGUCGCUGGCGCCGGCUGGGCAACAUUCCGAGGGGACCGUCCCCUCGGUAAUGGCGAAUGGGACCCA [G6U C22G]  0.0489
7. GGCCGGCAUGGUCCCAGCCUCCUCGCUGGCGCCGGCGGGGCAACAUUCCGCGGGGACCGUCCCCUCGGUAAUGGCGAAUGGGACCCA [U37G A51C]  0.0504
8. GCCCGGCAUGGUCCCAGCCUCCUCGCUGGCGCGGGCUGGGCAACAUUCCGAGGGGACCGUCCCCUCGGUAAUGGCGAAUGGGACCCA [G2C C33G]  0.0514
9. GGCCGGCAUGGUGCCAGCCUCCUCGCUGGCGCCGCCUGGGCAACAUUCCGAGGGGACCGUCCCCUCGGUAAUGGCGAAUGGGACCCA [C13G G35C]  0.0536
10. GGCCGGCAUGCUCCUAGCCUCCUCGCUGGCGCCGGCUGGGCAACAUUCCGAGGGGACCGUCCCCUCGGUAAUGGCGAAUGGGACCCA [G11C C15U]  0.0554
11. GGCCGGCAUGGUCCCAGCCUCCUCGCUGGCGCCGGCUGGGCCACAUUCCGAGGGGACCGUCCCCUCGGUAAUGUCGAAUGGGACCCA [A42C G74U]  0.0733
12. GGCCGGCAUGGUCCCAGCCUCCUCGCUGGCGCCAGCUGGGCAACAUUCAGAGGGGACCGUCCCCUCGGUAAUGGCGAAUGGGACCCA [G34A C49A]  0.0852
13. GGCCGGCAUGGACCCAGCCUCCUCGCUGGCGCCGACUGGGCAACAUUCCGAGGGGACCGUCCCCUCGGUAAUGGCGAAUGGGACCCA [U12A G35A]  0.0875
14. GGCCGGCAUGAUCCCAGCCUCCUCCCUGGCGCCGGCUGGGCAACAUUCCGAGGGGACCGUCCCCUCGGUAAUGGCGAAUGGGACCCA [G11A G25C]  0.0906
15. GGCCGGCAUGGUCCCAGCCUACUCGCUGGCGCCGGCUGGGCAACAUUCCGAGGGGACCGUCCCCUCGGUAAUGGCGAAUGCGACCCA [C21A G81C]  0.0923
16. GGCCGGCAUGGUCCCAGCCUCCUCGCUGGCGCAGGCUGGGCAACAUUCCGAGGGGACCGUCCCCUCGGUAAUGGCGUAUGGGACCCA [C33A A77U]  0.0923
17. GGCCGGCAUGGUCCCAGCCUCCUCCCUGGCGCCGGCUGGGCAACAUUCCGAGGGGACCGUCCCCUCGGUAAUGGCGCAUGGGACCCA [G25C A77C]  0.104
18. GGCCGGCAUGGUCGCAGCCUCCUCGCUGGCGCCGGCUGGGCAACAUUCCGAGGGGACCGUCCCCUCGGUAAUGGCGACUGGGACCCA [C14G A78C]  0.108
19. GGUCGGCAUGGUCCCAGCCUACUCGCUGGCGCCGGCUGGGCAACAUUCCGAGGGGACCGUCCCCUCGGUAAUGGCGAAUGGGACCCA [C3U C21A]  0.122
20. GGCCGGCAUGGUCCCAGCCUCCUCGCUGGCGCCGGCUGCGCACCAUUCCGAGGGGACCGUCCCCUCGGUAAUGGCGAAUGGGACCCA [G39C A43C]  0.138
21. GGCCGACAUGGUCCCAGCCUCCUCGCUGGCGCCGGCUGGGCAACAUUCCGAGGGGACCGUCCCCUCGGUAAUGGCGAAUAGGACCCA [G6A G80A]  0.147
22. GGCCGGCAUGGUCCCAGCCGCCUGGCUGGCGCCGGCUGGGCAACAUUCCGAGGGGACCGUCCCCUCGGUAAUGGCGAAUGGGACCCA [U20G C24G]  0.151
23. CGCCGGCAUGGUCCCAGCCUCCUCGCUGGCGCCGGAUGGGCAACAUUCCGAGGGGACCGUCCCCUCGGUAAUGGCGAAUGGGACCCA [G1C C36A]  0.151
24. GGCCGGCACGGUACCAGCCUCCUCGCUGGCGCCGGCUGGGCAACAUUCCGAGGGGACCGUCCCCUCGGUAAUGGCGAAUGGGACCCA [U9C C13A]  0.158
25. GGCCGGCAUGGUCCCAGCCUCCUCGCUGGCGCCGGAUGGUCAACAUUCCGAGGGGACCGUCCCCUCGGUAAUGGCGAAUGGGACCCA [C36A G40U]  0.161
26. GGCCGGCAUGGUCCCAGCCUUCUCGCUGGCGCCGGCUGGGCAACAUUCCGAGGGGACCGUCCCCUCGGUAAUGGCGAAUGGGACCCG [C21U A87G]  0.165
27. GGCCGGCAUGGUCCCAGCCUCCUCGCUGGCGCCGGCUGGGCAACAUUCCGAGGGGACCGUCCCCUGGGUAAUGGCGAAUGGGCCCCA [C66G A83C]  0.178
28. GGCCGGCAUGGUCCCAGCCUGCUCGCUGGCGGCGGCUGGGCAACAUUCCGAGGGGACCGUCCCCUCGGUAAUGGCGAAUGGGACCCA [C21G C32G]  0.19
29. GGACGGCAUGGUCCCAGCCUCCUCGCUGGCGCCGGCUGGGCAUCAUUCCGAGGGGACCGUCCCCUCGGUAAUGGCGAAUGGGACCCA [C3A A43U]  0.191
30. GGCCGGCAUGGUCCCAGCCUCCUCGCUGGCGCCCGCUGGGCAACAUUCCGAGGGGACCGUCCCCUCGGUAAUGGCGAAUGGGACCCU [G34C A87U]  0.192
31. GACCGGCAGGGUCCCAGCCUCCUCGCUGGCGCCGGCUGGGCAACAUUCCGAGGGGACCGUCCCCUCGGUAAUGGCGAAUGGGACCCA [G2A U9G]  0.192
32. GGCUGGCAUGGUCCCAGCCUCCUCGCUGGCGCCGGCUGGGCAACAUUCCGAGGGGACCGUCCCCUCGGUAAUGACGAAUGGGACCCA [C4U G74A]  0.197
33. GGCCGGCAUGGUCCCAGCCUCCUCGGGGGCGCCGGCUGGGCAACAUUCCGAGGGGACCGUCCCCUCGGUAAUGGCGAAUGGGACCCA [C26G U27G]  0.208
34. GGCCGGCAUGGUCCCAGCCUCCUCGCUGGCGCCUGCUGGGCUACAUUCCGAGGGGACCGUCCCCUCGGUAAUGGCGAAUGGGACCCA [G34U A42U]  0.252
35. GGCCGGCAUGGUCCCACCCUCCUCGCUGGCGCCGGCUGGGCAACAUUCCGAGGGGACCGUCCCCUCGGUAAUGGCGAAAGGGACCCA [G17C U79A]  0.26
36. GGCCGGCAUGGUCCCAGCCUCCUCGCUGGCGCCGGCUGGGCAACAUUCCGAGGGGAACGUCCCCUCGGUAAUGGAGAAUGGGACCCA [C57A C75A]  0.277
37. GGCCGGCAUGGUCCCAGCCUCCUCGCAGGCGCCGGCUGGGCAACAUUCCGAGGGGACCGUCCCCUCGGUAAUGGCGUAUGGGACCCA [U27A A77U]  0.332
38. GGCCGGCAUGGUCCCAGCCUCCUCGCUGGCGCCGGCUGGGCAACAUCCCGAGGGGACCGUCCCCUCGGUAAUGGCGAAUGAGACCCA [U47C G81A]  0.332
39. GGCCGGCAUGGUCCCAGCCUCCUCGCUGGCGCCGUCUGGGCAACAUUCCGAGGGGACCGACCCCUCGGUAAUGGCGAAUGGGACCCA [G35U U60A]  0.415
40. GGCCGGCAUCGUCCCAGCCUCCUCGCUGGCGCCGGCUGGGCAUCAUUCCGAGGGGACCGUCCCCUCGGUAAUGGCGAAUGGGACCCA [G10C A43U]  0.415
41. GGCCGGCAUGGUCCCAGCCUCCUCGCUGGCGCCGGCUGGGCAACAUUCCGAGGGGACCGUCCUCUCGGUAAUGGCGAAUAGGACCCA [C63U G80A]  0.482
42. GGCCGGCAUGGUCCCAGCCUCCUCGGUGGCGCCGGCUGGGCAACAUUCCGAGGGGACCGUCCCCUCGGUAAUGGCGAAUGGCACCCA [C26G G82C]  0.499
43. GGCCGGCUUGGUCCCAGCCUCCUCGCUGGUGCCGGCUGGGCAACAUUCCGAGGGGACCGUCCCCUCGGUAAUGGCGAAUGGGACCCA [A8U C30U]  0.529
44. GGCCGGCAUGGUCCCAGCCUCCUCGCUGGCGCCGGCUGGGCAACAUUCCGAGGGGAGCGUCCCCUCGGUAAUGGCGAAUGGGUCCCA [C57G A83U]  0.587
45. GGCCGGCAUGGUCCCAGCCUCCUCGCUGGCGCCGGCUGGGCAACAUUCCGAAGGGACCGUCCCCUCGGUAAUAGCGAAUGGGACCCA [G52A G73A]  0.602
46. GGCCGGCAUGGUCCCAGCCUCCUCGCUGGCGCCGGCUGGGCAACAUUCCGAGGGGACCGUUCCCUCGGUAAAGGCGAAUGGGACCCA [C61U U72A]  0.703
47. GGGCGGCAUGGUCCCAGCCUCCUCGCUGGCGCCGGCUGGGCAACAUUCCGAGGGGACCGUCCCCUCGGUAAUGGCGAAUGGGACCCA [C3G]  0.753
48. GGCCGGCAUGGUCCCAGCCUCCUCGCUGGCGCCGGCUGGGCAUCAUUCAGAGGGGACCGUCCCCUCGGUAAUGGCGAAUGGGACCCA [A43U C49A]  0.755
49. GGUCGGCAUGGUCCCAGCCUCCUCGCUGGCGCCGGCUGGGCAACAUUCCGAGGGGACCGUCCCCUCCGUAAUGGCGAAUGGGACCCA [C3U G67C]  0.772
50. GGCCGGAAUGGUCCCAGCCUCCUCGCUGGCGCCGGCUGGGCAACAUUCCGAGGGGACCGUCCCCUCGGUAAUGGCGAAUGGGACUCA [C7A C85U]  0.807
51. GGCCGGCAUGGUCCCAGCCUCCUCGCUGGCGCCGGCUGGGCAACAUUCCGAGGGGACCGGCCCCUCGGUAAUGGCGAAUGGGACCCC [U60G A87C]  0.831
52. GGCCGGCAUGGUCCCAGCCUCCUCGCUGGCGCCGGCUGGACAACAUUCCGUGGGGACCGUCCCCUCGGUAAUGGCGAAUGGGACCCA [G40A A51U]  0.844
53. GGCCGGCAUGGUCCCAGCCUCCUCGCUGGCGCCGGCUGGGCAACAUUCUGAGGGGACCGUCCCCUCGGUAAUGGCGAAUGGGACGCA [C49U C85G]  0.876
54. GGCCGGCAUGGUCCCAGCCUCCUCGCUGGCGCCGGCUGGGCAACAUUCCGAGGCGACCGUCCCCUCGGUAAUGGCGAAUGGGACCCU [G54C A87U]  0.901
55. GGCCGGCAUGGUCCCAGCCUCCUCGCUGGCGUCGGCUGGGCAACAUUCCGAGGGGACCGUCCCCCCGGUAAUGGCGAAUGGGACCCA [C32U U65C]  0.91
56. GGCCGGCAUGGUCCCAGCCUCCUCGCUGGCGCCGGCUGGGCAACAUUCCGAGGCGACCGUACCCUCGGUAAUGGCGAAUGGGACCCA [G54C C61A]  0.926
57. GGCCGGCAUGGUCCCGGCCUCCUCGCUGGCGCCGGCUGGGCAACAUUCCGACGGGACCGUCCCCUCGGUAAUGGCGAAUGGGACCCA [A16G G52C]  0.928
58. GGCCGGCAUGGUCCCAGCCUCCUCGCUGGCGCCGGCUGGGCAACAUUCCGCGGGGACCGUCCCCUCGGCAAUGGCGAAUGGGACCCA [A51C U69C]  0.931
59. GGCCGGCAUGGUCCCAGCCUCCUCGAUGGCGCCGGCUGGGCAACAUUCCGAGGGGACUGUCCCCUCGGUAAUGGCGAAUGGGACCCA [C26A C58U]  0.981
60. GGCCGGCAUGGUCCCAGCCUCCUCGCUGGCGCCGGCUGGGAAACAUUCCGAGGGGACCGCCCCCUCGGUAAUGGCGAAUGGGACCCA [C41A U60C]  1.05
61. GGCCGGCAUGGUCCCAGCCUCCUCGCUGGCGCCGGCUGGGCAACAUUCCGAGGGUACUGUCCCCUCGGUAAUGGCGAAUGGGACCCA [G55U C58U]  1.05
62. GGCCGGCAUGGUCCCAGCCUCCUCGCGGGCGCCGGCUGGGCAACAUUCCGAGGGGACCGUCCCCUCAGUAAUGGCGAAUGGGACCCA [U27G G67A]  1.1
63. GGCCGGCAUGGUCCCAGCCUCCUCGCUGGCGCCGGCUGGGCAACAUUCCGAGGGGACCGUCCCCUCGGCAAUGGCGAAUGGGACACA [U69C C85A]  1.14
64. GGCCGGCAUGGUCUCAGCCUCCUCGCUGGCGCCGGCUGGGCAACAUUCCGUGGGGACCGUCCCCUCGGUAAUGGCGAAUGGGACCCA [C14U A51U]  1.14
